Measured values reported in PMC11272940, “UNC-45 assisted myosin folding depends on a conserved FX3HY motif implicated in Freeman Sheldon Syndrome” (Nature Communications, 2024).

B1: C. elegans myosin motor domain MHC-B (1-790), wildtype (domain or fragment, UniProt P02566 1-790, looked up)
chain: MEHEKDPGWQYLRRTREQVLEDQSKPYDSKKNVWIPDPEEGYLAGEITATKGDQVTIVTARGNEVTLKKELVQEMNPPKFEKTEDMSNLSFLNDASVLHNLRSRYAAMLIYTYSGLFCVVINPYKRLPIYTDSCARMFMGKRKTEMPPHLFAVSDEAYRNMLQDHENQSMLITGESGAGKTENTKKVICYFAAVGASQQEGGAEVDPNKKKVTLEDQIVQTNPVLEAFGNAKTVRNNNSSRFGKFIRIHFNKHGRLASCDIEHYLLEKSRVIRQAPGERCYHIFYQIYSDFRPELKKELLLDLPIKDYWFVAQAELIIDGIDDVEEFQLTDEAFDILNFSAVEKQDCYRLMSAHMHMGNMKFKQRPREEQAEPDGTDEAEKASNMYGIGCEEFLKALTKPRVKVGTEWVSKGQNCEQVNWAVGAMAKGLYSRVFNWLVKKCNLTLDQKGIDRDYFIGVLDIAGFEIFDFNSFEQLWINFVNEKLQQFFNHHMFVLEQEEYAREGIQWVFIDFGLDLQACIELIEKPLGIISMLDEECIVPKATDLTLASKLVDQHLGKHPNFEKPKPPKGKQGEAHFAMRHYAGTVRYNCLNWLEKNKDPLNDTVVSAMKQSKGNDLLVEIWQDYTTQEEAAAKAKEGGGGGKKKGKSGSFMTVSMLYRESLNNLMTMLNKTHPHFIRCIIPNEKKQSGMIDAALVLNQLTCNGVLEGIRICRKGFPNRTLHPDFVQRYAILAAKEAKSDDDKKKCAEAIMSKLVNDGSLSEEMFRIGLTKVFFKAGVLAHLEDIRDEKL
notes: MHC-B muscle myosin (Myo4_Cel), C. elegans, motor domain residues 1-790; the state is told by the assay; also called MHC (1-790); Myo4_Cel; source: High Five insect cells, baculovirus; purified (Ni-NTA, SEC) alone or as a complex with UNC-45; not shown: His6, C-terminal, kept
B2: Myo4 peptide (residues 561–573) (peptide)
peptide: WKFIVSHYAVDVEY
notes: tryptophan introduced at the N-terminus for peptide quantification; also called myosin peptide; core of the myosin motif; source: synthetic peptide (in-house, HPLC purified)
B3: Full length C. elegans UNC-45 (from E. coli) (natural protein, UniProt G5EG62 1-961, looked up)
chain: MVARVQTAEEIRDEGNAAVKDQDYIKADELYTEALQLTTDEDKALRPVLYRNRAMARLKRDDFEGAQSDCTKALEFDGADVKALFRRSLAREQLGNVGPAFQDAKEALRLSPNDKGIVEVLQRLVKANNDKIKQTTSLANKVTDMEKLAFRGEAKDTEQKMTALNNLLVLCRESESGATGVWNQGALVPFVLNLINDASENEEVTVTAIRILDETIKNSVRCMKFLAMHDPDGPKSVRFVCRLMCKKSTKDFVDATGILVQRVFNAMAKMDRQKEMKPDPEVAEANKIWIIRVLLELQEMLQDPKVGAVQRETCIDLFLKNLMHMDGGIPRGWSWKFVEERGLLALLDVASQIPELCEYPVSAETRQHVAICLQRLEEDMVFDTKRTIFKEKVDMFFNALISRCTNDDEGHKYRIKLSCFLITMLQGPVDIGINLITNDQLTPIMLEMAASQDHLMQGIAAELIVATVSKHERAINMLKVGIPVLRALYDSEDPTVKVRALVGLCKIGAAGGDDISKATMKEEAVISLAKTCKKFLLETEKYSVDIRRYACEGLSYLSLDADVKEWIVDDSLLLKALVLLAKKAGALCVYTLATIYANLSNAFEKPKVDEEMVKLAQFAKHHVPETHPKDTEEYVEKRVRALVEEGAVPACVAVSKTESKNALELIARSLLAFAEYEDLRGRIIAEGGTVLCLRLTKEASGEGKIKAGHAIAKLGAKADPMISFPGQRAYEVVKPLCDLLHPDVEGKANYDSLLTLTNLASVSDSIRGRILKEKAIPKIEEFWFMTDHEHLRAAAAELLLNLLFFEKFYEETVAPGTDRLKLWVLYSAEVEEERLSRASAAGFAILTEDENACARIMDEIKSWPEVFKDIAMHEDAETQRRGLMGIANIMHSSNKLCSEIVSSEVFRVLVAVTKLGTINQERAGSTEQAKRGLEAAEKFGLIKATDREIYERENQMSTIQE
notes: UNC-45 chaperone, C. elegans; The C-terminal Strep tag is stated for the peptide spot assay; also called wildtype UNC-45; purified UNC-45; source: E. coli, purified (HisTrap or StrepTrap, SEC); not shown: Strep, C-terminal, kept

Tests used:
[1] = target: B3; experiment: cross-linking; XL-MS of the in vitro reconstituted UFD-2:UNC-45:myo^UF complex; 0.25 mM DSS, 20 mM HEPES pH 8.0, 150 mM NaCl, 25 °C, 30 min; details: both partners purified
[2] = target: T1, C. elegans UNC-45 (co-expressed with the MHC-B motor domain in insect cells) (C. elegans, UniProt G5EG62 1-961); experiment: tandem affinity co-purification + SEC; co-expressed in insect cells; HisTrap (myosin) then Strep-Tactin (UNC-45), then Superdex 200 in 20 mM HEPES pH 8.0, 150 mM NaCl; details: partners not purified
T1 construct: UNC-45 chaperone, C. elegans; also called UNC-45 WT; wildtype UNC-45; source: High Five insect cells, baculovirus, co-expressed with myosin; purified as a complex (HisTrap, Strep-Tactin, SEC); in cleared lysate in the solubility assay
T1 sequence: B3 chain

[3] = target: T2, Kluyveromyces lactis SHE4, wildtype (Kluyveromyces lactis); experiment: ITC; 25 °C, VP-ITC; 10 μM SHE4 in the cell, 90 μM (N475A: 107 μM) peptide in the syringe; 10 mM HEPES pH 8.0, 150 mM NaCl, 1 mM TCEP; single site model; details: both partners purified
T2 chain: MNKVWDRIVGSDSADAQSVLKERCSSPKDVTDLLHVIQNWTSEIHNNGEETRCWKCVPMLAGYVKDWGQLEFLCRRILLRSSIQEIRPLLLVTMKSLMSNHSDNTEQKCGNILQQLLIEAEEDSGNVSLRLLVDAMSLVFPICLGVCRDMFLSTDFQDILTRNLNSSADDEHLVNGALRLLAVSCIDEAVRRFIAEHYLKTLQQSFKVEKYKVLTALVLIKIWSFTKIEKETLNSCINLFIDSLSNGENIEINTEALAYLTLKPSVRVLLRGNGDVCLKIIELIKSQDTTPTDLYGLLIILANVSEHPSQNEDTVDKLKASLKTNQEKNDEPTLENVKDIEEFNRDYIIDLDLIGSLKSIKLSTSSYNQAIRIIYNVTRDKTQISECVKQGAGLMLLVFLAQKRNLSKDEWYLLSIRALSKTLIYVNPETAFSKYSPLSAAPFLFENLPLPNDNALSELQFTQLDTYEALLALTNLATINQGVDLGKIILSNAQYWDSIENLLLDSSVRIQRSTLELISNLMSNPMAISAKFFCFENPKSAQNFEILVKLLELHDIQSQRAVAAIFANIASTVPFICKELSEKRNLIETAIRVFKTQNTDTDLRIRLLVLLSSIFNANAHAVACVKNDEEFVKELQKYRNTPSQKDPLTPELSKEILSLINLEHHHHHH

[4] = target: T3, 547–588 myosin peptide (MHC-B) (C. elegans, UniProt P02566 547-588); experiment: thermal shift assay; 1 μM UNC-45 or UNC-45 ΔUCS, 2 mM peptide, SYPRO Orange, 20 mM HEPES pH 8.0, 150 mM NaCl; triplicates; details: both partners purified
T3 construct: also called native peptide; identified myosin ligand; source: synthetic peptide
T3 peptide (looked up): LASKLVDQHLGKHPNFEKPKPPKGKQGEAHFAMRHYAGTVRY

B1: binds [1]; binds [2].

B2 gave a Kd [3] of 600 nM.

In the case of B3, the “increase of melting temperature (Tm)” value [4] is reported as 5.5 °C.
